Key:
[1] = target: GII.3 huNoV TV24 P protein (GII.3 human norovirus TV24); experiment: crystal structure; TV24 P protein, native and with A tetrasaccharide; hanging drop vapor diffusion, 9.6% PEG 3350, 160 mM ammonium citrate tribasic pH 7.0, 20 mM tri-sodium citrate pH 5.6, 500 mM 1,6-hexanediol, 20 °C; homodimers in the asymmetric unit
[2] = target: GII.11 porNoV VA34 P protein (GII.11 porcine norovirus VA34); experiment: crystal structure; VA34 P protein, native; hanging drop vapor diffusion, 100 mM Tris pH 8.0, 16% PEG 3350, 6% tacsimate pH 8.0, 20 °C

| Substance | stoichiometry N [1] | stoichiometry N [2] |
| --- | --- | --- |
| GII.3 huNoV TV24 P protein (domain or fragment) | 2 | – |
| GII.11 porNoV VA34 P protein (domain or fragment) | – | 2 |
